Experimental data: the nanobody polyreactivity screen of Harvey et al. (2022)

Assay: yeast display, Sf9 membrane polyspecificity reagent, FACS + sequencing; frameworks hold sequencing errors
Summary of the method: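 Polyreactivity labels are assigned by the sorting gate from which each nanobody was recovered. The gates were low and high (top ~1%), set on anti-HA fluorescence for expression and streptavidin fluorescence for reagent binding. Before sorting, galactose-induced (36–48 hours) yeast display cells were stained for 1 hour at 4 °C with 10% biotinylated, detergent-solubilized Sf9 membrane reagent.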

Sequence	polyreactivity (PSR sort gate)
QVQLVESGGGLVQAGGSLRLSCAASGRTFWGYVKGWYRQAPGKERELVAAITSSTGRTYYADSVKGRFTISRDNAKNTVYLQMNSLKPEDTAVYYCAAGYNGYGLQYYYWGQGTQVTVSS	high polyreactivity
QVQLQESGGGLEQAGGSLRLSCAASGYISDIGPMGWSRQAPGKEREFVATIVVGSTTNYADSVKGRFTISRDNAKNTVYLQPESGRFRGVLLRGWLLAVGKFTYWGQGTQETVSS	low polyreactivity
QVQHVESGGGLVHAGGSLRLSCAASGRIFGGYAMGWYRQPPGKDREFVATISRSGSSTYYADSVKGRFTISRDNAKNTVYLQMNSLKPEDTAVYYCAAVIRRPNQWYWWTNSDYWGQGTQVTVSS	high polyreactivity
QVQLVESGGGLVQAGGSLRLSCAASGRTFYGYAMGWYRQAPGKERELVASIRQSAGRTYYADSVKGRFTISRDNAKNTVYLQMNSLKPEDTAVYYCAASIFLRSFYQQGNYWGQGTQVTVSS	high polyreactivity
QVQLVESGGGLVQAGGSLRLSCAASGGTFRFNAMGWYRQAPGKERELVAAISRGGSTNYADSVKGRFTISRDNAKNTVYLQMNSLKPEDTAVYYCAADTYHPRFWYDYWGQGTQVTVSS	low polyreactivity
QVQLVESGGGLVQAGGSLRLSCAASGITLTVYTMGWYRQAPGKERKLVAAITYGGTSTYYADSVKGRFTISRDNAKNTVYLQMNSLKPEDTAVYYCAARARIYNYWGQGTQVTVSS	high polyreactivity
QVQLVESGGGLVQAGGSLRLSCAASRLTFVGYAMGWYRQAPGKETALVAALTSSGGGTYYADSVKGRFTISRDNAKNPVYLQMNSLKPQDTALYYCAKVTRGSQYDYWGQGTEVTVSS	low polyreactivity
QVQLVDSGRGLVQAGGSLRLSCAASGGTFARNAMGWYRQAPGKERELVAAIRGGVSTNYADSVKGRFTISSDNAKNTVYLQMNSLKPEDTAVYYCNASPPTLEGYWGQGTQVTVSS	low polyreactivity
QVQLVESGGGLVQAGGSLRLSCAASGFTFSQNAMGWYRQAAGKERELVAAITGDGGSTYYADSVKGRFTISRDNAKNTVFLQMNSLKPEDTAVYYCAADPSPYSAFGIYWFRYDYWGQGTQVTVSS	low polyreactivity
QVQLEEKRRGLVQAGGSLRLSCASSGRTFVTNAMGRYRQAPGKERELVAAISSSGGSTYYADSVKGRFTISRDNAMNTVYLQMNSLKPEDTAVYYCAVAGQTKGQYDYWGQGTQVTVSS	low polyreactivity
QVQLVESVGGLVQAGGSLRLSCAASGYILPKNTMGWYIQAPGKERELVAAISWSGGSTFYADSVKGRFTISRDNAKNTVYLQMNRLKPEDTAVYYCAADRSWSWYYRYDYWGQGTQVTVSS	low polyreactivity
QVQLVESGGGLVQAGGSLRLSCAASGGIFDYYAMGWYRQAPGKERELVAAISSSGGSTYYADSVKGRFTISRDNAKNTVYLQMNSLKPEDTAVYYCNADRRRRFGYWGQGTQVTVSS	high polyreactivity
QVQLHESGGGLVQAGGSLRLSCAASGTISYAGPMGWYRQAPGKEREFVAGIGVGSNTNYADSVKGRYTIIRDNAKNTVYLQMNSLKPEDTAVYYCAVGGYAPLGRPYWGQGTQVTVCS	low polyreactivity
QVQLVESGAGLFQAGGRLRISCAPSGFIFVFNAMGWYRQAPGKERELVAAINRGDITNYADSVKGRFTISRDNAKNTVYLQMHSLSPVDTAVYFCAADGEDSLWTGYDYDYWGQGTQVTVST	low polyreactivity
QVQLVESGGGLVQAGGSLRLSCAASGSTFTVNGMGWYRQAPGKERELVASITWSGGSTYYADSVKGRFTISRDNAKNTVYLLMNSLKPEDTAVYYCAADEKLYITGYDYWGHGTQVTVSS	low polyreactivity
QVQLVESGGGLDQAGGSLRLSSAASGSIFSGYAMGWYRQAPGKERELVAAISSSGTRTYYADSVKGRFTISRDNAKNTVYLQMNSLKPEETAVYYCNAATSKVQFSGYGYWGQGTQVTVSS	high polyreactivity

Sequence	polyreactivity (PSR sort gate)
QVQLVESGGGLVQAGGSLRLSCAASGRTFRGYVMGWYRQAPGKERELVASISYSGGSTYYADSVKGRFTISRDNAKNTVYLQMNSLKPEDTAVYYCAARKGYDQYRWRYSQNNYWGQGTQVTVSS	high polyreactivity
QVQLVESGGGLVQAGGSLRLSCAASGLTFSINAMGWYIQAPGKERELVAAISRSGGRTYYADSVKGRFTISRDNAKNTVYLQMNSLKPEDTAVYYCAADKTQSHYDYWGQGTQVTVSS	high polyreactivity
QVQLVESGGGLVQAGGSLRLSCAASGLTFKYYAMGWYRQAPGKERELVAIISFGGGSTYYADSVKGRFTISRDNAKNTVYLQMNSLKPEDTAVYYCNARLLFKYGYWGQGTQVTVSS	high polyreactivity
QVQLVESGGGLVQAGGSLRLTCAASGRTYRKNAMGWYRQAPGKETELVAAITGSSGTTYYADSVKARFTISRDNAKISVYFQMNSLKPEDTAVYYCATTVCDPGRRYYYWGLGTQVTVSS	high polyreactivity
QVQLVESGGGLVQAGGSLRLSCAASGSTFLYYAMGWYRQAPGKERELVAAITWSGGRTYYADSVKGRFTISRDNAKNTVYLQMNSLKPEVTAVYYCNKAYPWLRSTALNPGLYDYWGQGTQVTVSS	high polyreactivity
QVQLVESGGGLVQAGGSLRLSCAASGRTLKYNPMGWYRQAPGKERELVAAISRSGGRTYYADSVKGRFTIARDIAKYSVYSQINSLKPEDTAVYYCARESSYYKYYYWGQGTQVTLSS	high polyreactivity
QVQLVESGGGLVQAGGSLRLSCAASGFTFRKYAMGWYRQAPGKERELVAVINIVGSTYYADSVKGRFTISRDNAKNTVYLQMNSRKPEDTAVYYCAADWSYLLKYYWYGGFNYWGQGTQVTVSS	high polyreactivity
QVQLVESGGGLVQAGGSLRLSCAASGGIFKYYAMGWSRQAPGTERELVAAITSGGNTNYAESVKGRFTISRDNAKNTVYLQMNSQKPEDTAVYYCSARSISRRTWQYNYWGQGTQVTVSS	high polyreactivity
QVQLVESGGGLVQAGGSLRLSCAASGRTFSPNAMGWYRQAPGKEREFVAAITWSGGGTFYADSVKGRFTISRDNAKNTVYLQMNSLKPEDTAVYYCAARLDTYQTHSVITPAALYYWGQGTQVTVSS	low polyreactivity
QVQLVESGGGLVQAGGSLRLSCAASGITFAFYDKGWYRQPPGKERELVAAISYSGGGTYYADSVKGRFTISRDNAKNNVYLQMNSLKPEDTAVYYCAADPKTHPLFGEDYWGQGTQVTVSS	low polyreactivity
QVQLVDSGGGLVQAGGSLRLSCAASGIISIVYAMGWYRQAPGKERELVAAISSGGSTYYADSVKGRFTISRDNAKNTVYLQMNRLKPEDTAVYYCATAYRYPPNAYFQRMDSWGQGTQVTVSS	high polyreactivity
QVQLVESGGGLVQAGGSLRLSCAASGSTFDTNAMGWYRQAPGKELVAAISSAGSTYYADSVKGRFTISRDNAKNTVYLQMNSLKPVATAVYYCAAGNAESPYESLEDDYWGQGTQVTVSS	low polyreactivity
QVQLVESGGGLVQAGGSLRLSCAASGNTFLYYGMGWYRQAPGKERELVAAITSGGITYYADSVKGRFTISRDNAKNTVYLQMNSLKPEETAVYFCNKDVGFTRPLYYWGQGTQVTVSS	low polyreactivity
QVQLVESGGGLVQAGGSLRLSCAAYGSTFRRNTMGWYRQAPGKERELVAGISSSGGSTYYADSVKGRFTISRDTAMNTVYLQMNSLKPEDTAVYYCAARYYVSYVGYNYWGQCTQVTVSS	high polyreactivity
QVQLVESGGGLVQAGGSLRLSCAASGRTFSYYAIGWYRQAPGTERELVAGISYSGGTTYYADSVKGRFTISRDNAKNTVYLQMNSLKPEDTAVYYCATRYWTFSGYDYWGQGTQVTVSS	low polyreactivity
QVQLVESGGGLVQAGGSLRLSCAASGSTFSGNAMGWYRQAPGKEREFVAAIFSDGSTYYADSVKGRFTISRDNAKNTVYLQMNSLKPEDTAVYYCAAAWYEPATQTGYFEFDYWGQGTQVTVSS	low polyreactivity
